The supplement of paper PMC5998384

What was measured:
[1] = test system: HeLa Kyoto; test: solubility in G1/S (NP-40 vs SDS abundance) (log2 ratio); higher = more soluble; settings: cell cycle stage: G1/S
[2] = test system: HeLa Kyoto; test: solubility change mitosis vs G1/S (difference of NP-40 vs SDS log2 ratios) (log2 ratio difference); higher = more soluble in mitosis
[3] = test system: HeLa Kyoto; test: melting temperature (median over replicates), in situ; higher = more thermally stable
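Throughout, for melting temperature (median over replicates), in situ: HeLa Kyoto cells synchronized by double thymidine or nocodazole block, proteins quantified by TMT10plex mass spectrometry, three independent biological replicates.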
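Throughout, for solubility change mitosis vs G1/S (difference of NP-40 vs SDS log2 ratios): synchronized HeLa Kyoto cells (double thymidine block for G1/S, nocodazole release for mitosis), protein amounts in NP-40 versus SDS lysates quantified by mass spectrometry, three biological replicates.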
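Throughout, for solubility in G1/S (NP-40 vs SDS abundance): HeLa Kyoto cells arrested at G1/S by double thymidine block, proteins quantified by TMT10plex mass spectrometry in mild NP-40 versus SDS extracts, three biological replicates.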

Row | Substance | solubility in G1/S (log2) [1] | solubility change mitosis (log2) [2] | melting temperature ([3]; cell cycle stage: G1/S) [°C] | melting temperature ([3]; cell cycle stage: mitosis) [°C]
1 | MMFRDQVGILAGWFKGWNECEQTVALLSLLKRVTRTQARFLQLCLEHSLADCNDIHLLESEANSAAIVSQWQQESKEKVVSLLLSHLPLLQPGNTEAKSEYMRLLQKVLAYSIESNAFIEESRQLLSYALIHPATTLEDRNALALWLSHLEERLASGFRSRPEPSYHSRQGSDEWGGPAELGPGEAGPGWQDKPPRENGHVPFHPSSSVPPAINSIGSNANTGLPCQIHPSPLKRSMSLIPTSPQVPGEWPSPEELGARAAFTTPDHAPLSPQSSVASSGSEQTEEQGSSRNTFQEDGSGMKDVPSWLKSLRLHKYAALFSQMSYEEMMTLTEQHLESQNVTKGARHKIALSIQKLRERQSVLKSLEKDVLEGGNLRNALQELQQIIITPIKAYSVLQATVAAATTTPTAKDGAPGEPPLPGAEPPLAHPGTDKGTEAKDPPAVENYPPPPAPAPTDGSEPAPAPVADGDIPSQFTRVMGKVCTQLLVSRPDEENITSYLQLIEKCLTHEAFTETQKKRLLSWKQQVLKLLRTFPRKAALEMQNYRQQKGWAFGSNSLPIAGSVGMGVARRTQRQFPMPPRALPPGRMGLLSPSGIGGVSPRHALTSPSLGGQGRQNLWFANPGGSNSMPSQSRSSVQRTHSLPVHSSPQAILMFPPDCPVPGPDLEINPTLESLCLSMTEHALGDGTDKTSTI [SAMD4B] | 0.549 | -0.0818 | 50.8 | 51.4
2 | MEQPWPPPGPWSLPRAEGEAEEESDFDVFPSSPRCPQLPGGGAQMYSHGIELACQKQKEFVKSSVACKWNLAEAQQKLGSLALHNSESLDQEHAKAQTAVSELRQREEEWRQKEEALVQREKMCLWSTDAISKDVFNKSFINQDKRKDTEDEDKSESFMQKYEQKIRHFGMLSRWDDSQRFLSDHPYLVCEETAKYLILWCFHLEAEKKGALMEQIAHQAVVMQFIMEMAKNCNVDPRGCFRLFFQKAKAEEEGYFEAFKNELEAFKSRVRLYSQSQSFQPMTVQNHVPHSGVGSIGLLESLPQNPDYLQYSISTALCSLNSVVHKEDDEPKMMDTV [CDC37L1] | 0.655 | -0.0113 | 46.3 | 50.9
3 | MASKGPSASASPENSSAGGPSGSSNGAGESGGQDSTFECNICLDTAKDAVISLCGHLFCWPCLHQWLETRPNRQVCPVCKAGISRDKVIPLYGRGSTGQQDPREKTPPRPQGQRPEPENRGGFQGFGFGDGGFQMSFGIGAFPFGIFATAFNINDGRPPPAVPGTPQYVDEQFLSRLFLFVALVIMFWLLIA [RNF185] | 0.352 | -0.146 | 53.4 | –
4 | MGEFKVHRVRFFNYVPSGIRCVAYNNQSNRLAVSRTDGTVEIYNLSANYFQEKFFPGHESRATEALCWAEGQRLFSAGLNGEIMEYDLQALNIKYAMDAFGGPIWSMAASPSGSQLLVGCEDGSVKLFQITPDKIQFERNFDRQKSRILSLSWHPSGTHIAAGSIDYISVFDVKSGSAVHKMIVDRQYMGVSKRKCIVWGVAFLSDGTIISVDSAGKVQFWDSATGTLVKSHLIANADVQSIAVADQEDSFVVGTAEGTVFHFQLVPVTSNSSEKQWVRTKPFQHHTHDVRTVAHSPTALISGGTDTHLVFRPLMEKVEVKNYDAALRKITFPHRCLISCSKKRQLLLFQFAHHLELWRLGSTVATGKNGDTLPLSKNADHLLHLKTKGPENIICSCISPCGSWIAYSTVSRFFLYRLNYEHDNISLKRVSKMPAFLRSALQILFSEDSTKLFVASNQGALHIVQLSGGSFKHLHAFQPQSGTVEAMCLLAVSPDGNWLAASGTSAGVHVYNVKQLKLHCTVPAYNFPVTAMAIAPNTNNLVIAHSDQQVFEYSIPDKQYTDWSRTVQKQGFHHLWLQRDTPITHISFHPKRPMHILLHDAYMFCIIDKSLPLPNDKTLLYNPFPPTNESDVIRRRTAHAFKISKIYKPLLFMDLLDERTLVAVERPLDDIIAQLPPPIKKKKFGT [CIRH1A] | -1.13 | 0.349 | 54.3 | 52.3
5 | MNSTEFTEDVEEVLKSITVKVETEAEDAALDCSVNSRTSEKHSVDSVLTALQDSSKRKQLVSDGLLDSVPGVKRRRLIPEALLAGMRNRENSSPCQGNGEQAGRGRSLGNVWPGEEEPCNDATTPSYKKPLYGISHKIMEKKNPPSGDLLNVYELFEKANASNSPSSLRLLNEPQKRDCGSTGAGTDNDPNIYFLIQKMFYMLNTLTSNMSQLHSKVDLLSLEVSRIKKQVSPTEMVAKFQPPPEYQLTAAELKQIVDQSLSGGDLACRLLVQLFPELFSDVDFSRGCSACGFAAKRKLESLHLQLIRNYVEVYYPSVKDTAVWQAECLPQLNDFFSRFWAQREMEDSQPSGQVASFFEAEQVDPGHFLDNKDQEEALSLDRSSTIASDHVVDTQDLTEFLDEASSPGEFAVFLLHRLFPELFDHRKLGEQYSCYGDGGKQELDPQRLQIIRNYTEIYFPDMQEEEAWLQQCAQRINDELEGLGLDAGSEGDPPRDDCYDSSSLPDDISVVKVEDSFEGERPGRRSKKIWLVPIDFDKLEIPQPDFEVPGADCLLSKEQLRSIYESSLSIGNFASRLLVHLFPELFTHENLRKQYNCSGSLGKKQLDPSRIKLIRHYVQLLYPRAKNDRVWTLEFVGKLDERCRRRDTEQRRSYQQQRKVHVPGPECRDLTSYAINPERFREEFEGPPLPPERSSKDFCKIPLDELVVPSPDFPVPSPYLLSDKEVREIVQQSLSVGNFAARLLVRLFPELFTAENLRLQYNHSGACNKKQLDPTRLRLIRHYVEAVYPVEKMEEVWHYECIPSIDERCRRPNRKKCDILKKAKKVEK [BEND3] | -0.105 | 0.152 | – | 48.1
6 | MDPLFQQTHKQVHEIQSCMGRLETADKQSVHIVENEIQASIDQIFSRLERLEILSSKEPPNKRQNARLRVDQLKYDVQHLQTALRNFQHRRHAREQQERQREELLSRTFTTNDSDTTIPMDESLQFNSSLQKVHNGMDDLILDGHNILDGLRTQRLTLKGTQKKILDIANMLGLSNTVMRLIEKRAFQDKYFMIGGMLLTCVVMFLVVQYLT [GOSR2] | 0.00468 | 0.0667 | 51.8 | 51.4
7 | MASQNRDPAATSVAAARKGAEPSGGAARGPVGKRLQQELMTLMMSGDKGISAFPESDNLFKWVGTIHGAAGTVYEDLRYKLSLEFPSGYPYNAPTVKFLTPCYHPNVDTQGNICLDILKEKWSALYDVRTILLSIQSLLGEPNIDSPLNTHAAELWKNPTAFKKYLQETYSKQVTSQEP [UBE2C] | -0.443 | 0.955 | – | 49.9
8 | MGLCKCPKRKVTNLFCFEHRVNVCEHCLVANHAKCIVQSYLQWLQDSDYNPNCRLCNIPLASRETTRLVCYDLFHWACLNERAAQLPRNTAPAGYQCPSCNGPIFPPTNLAGPVASALREKLATVNWARAGLGLPLIDEVVSPEPEPLNTSDFSDWSSFNASSTPGPEEVDSASAAPAFYSQAPRPPASPGRPEQHTVIHMGNPEPLTHAPRKVYDTRDDDRTPGLHGDCDDDKYRRRPALGWLARLLRSRAGSRKRPLTLLQRAGLLLLLGLLGFLALLALMSRLGRAAADSDPNLDPLMNPHIRVGPS [ZFPL1] | 0.256 | -0.0676 | 57.4 | –
9 | MARGQQKIQSQQKNAKKQAGQKKKQGHDQKAAAKAALIYTCTVCRTQMPDPKTFKQHFESKHPKTPLPPELADVQA [ZNF706] | -0.28 | 0.171 | 57.5 | 54.1
10 | MNNLNDPPNWNIRPNSRADGGDGSRWNYALLVPMLGLAAFRWIWSRESQKEVEKEREAYRRRTAAFQQDLEAKYHAMISENRRAVAQLSLELEKEQNRTASYREALISQGRKLVEEKKLLEQERAQVMQEKRQVQPLRSAYLSCLQREENWQRRARLLLKEFEAVLTERQNIYCSLFLPRSKRLEIEKSLLVRASVDPVAADLEMAAGLTDIFQHDTYCGDVWNTNKRQNGRLMWLYLKYWELVVELKKFKRVEEAILEK [CCDC127] | 0.0789 | 0.115 | 54 | 52.5
11 | MSVHYTLNLRVFWPLVTGLCTALVCLYHVLRGSGGARAEPADGVDGGFPLLKVAVLLLLSYVLLRCRHAVRQRFLPGSPRLEGHAAFSSRHFREPGLSILLESYYEHEVRLSPHVLGHSKAHVSRIVGELVRAGRARGSPGLIPGGALALAFRGDFIQVGSAYEQHKIRRPDSFDVLVPLRLPPLVALEPRSLGEEPALAPAFRGCFLCALKAPPSPSGASGGHWLRDCKPFADAFCVDVRGRRHLSATLVLRWFQSHLQRSLATVRYSLEGRCRVTLTPGGLEQPPTLHILPCRTDYGCCRLSMAVRLIPAVHLGDGVFLVAPPPPPLPSAPLLELPEGLRAEALWGVNTARQEQKLLSWLQERAAPGACYLKCLQLLKALRDLGARGLDSAAATQWGRILSSYVLKTVLLAVLLRKGAPGQGWDEEHLGRCLEELVQFLRDCLLRRHTLFHCVLGPGGAAAEVGPLPKALREAAPVDLLAAFDGHARELAAARLLSTWQRLPQLLRAYGGPRYLARCPPPRSQRTQGFLEGEP [ITPRIPL2] | -0.164 | 0.00884 | 53.8 | 55.4
12 | ZNF318 | -0.136 | -0.0151 | 46.2 | 49.2
13 | MAELGLNEHHQNEVINYMRFARSKRGLRLKTVDSCFQDLKESRLVEDTFTIDEVSEVLNGLQAVVHSEVESELINTAYTNVLLLRQLFAQAEKWYLKLQTDISELENRELLEQVAEFEKAEITSSNKKPILDVTKPKLAPLNEGGTAELLNKEILRLQEENEKLKSRLKTIEIQATNALDEKSKLEKALQDLQLDQGNQKDFIKAQDLSNLENTVAALKSEFQKTLNDKTENQKSLEENLATAKHDLLRVQEQLHMAEKELEKKFQQTAAYRNMKEILTKKNDQIKDLRKRLAQYEPED [LZTFL1] | 0.713 | 0.0593 | 53.2 | 52.7
14 | MSVAGLKKQFHKATQKVSEKVGGAEGTKLDDDFKEMERKVDVTSRAVMEIMTKTIEYLQPNPASRAKLSMINTMSKIRGQEKGPGYPQAEALLAEAMLKFGRELGDDCNFGPALGEVGEAMRELSEVKDSLDIEVKQNFIDPLQNLHDKDLREIQHHLKKLEGRRLDFDYKKKRQGKIPDEELRQALEKFDESKEIAESSMFNLLEMDIEQVSQLSALVQAQLEYHKQAVQILQQVTVRLEERIRQASSQPRREYQPKPRMSLEFPTGDSTQPNGGLSHTGTPKPSGVQMDQPCCRALYDFEPENEGELGFKEGDIITLTNQIDENWYEGMLHGHSGFFPINYVEILVALPH [SH3GL2] | 0.586 | -0.159 | 48.7 | 49.2
15 | MGSTESSEGRRVSFGVDEEERVRVLQGVRLSENVVNRMKEPSSPPPAPTSSTFGLQDGNLRAPHKESTLPRSGSSGGQQPSGMKEGVKRYEQEHAAIQDKLFQVAKREREAATKHSKASLPTGEGSISHEEQKSVRLARELESREAELRRRDTFYKEQLERIERKNAEMYKLSSEQFHEAASKMESTIKPRRVEPVCSGLQAQILHCYRDRPHEVLLCSDLVKAYQRCVSAAHKG [CHCHD6] | 0.215 | 0.232 | 54.7 | 53.2
16 | ATG2B | -0.312 | 0.00813 | – | 53.4
17 | CEP250 | -0.0371 | 0.272 | 51 | 50.8
18 | MVAYWRQAGLSYIRYSQICAKAVRDALKTEFKANAEKTSGSNVKIVKVKKE [ATP5E] | -0.106 | 0.368 | 53.2 | 51.8
19 | MSAARESHPHGVKRSASPDDDLGSSNWEAADLGNEERKQKFLRLMGAGKKEHTGRLVIGDHKSTSHFRTGEEDKKINEELESQYQQSMDSKLSGRYRRHCGLGFSEVEDHDGEGDVAGDDDDDDDDSPDPESPDDSESDSESEKEESAEELQAAEHPDEVEDPKNKKDAKSNYKMMFVKSSGS [SMAP] | 0.338 | 0.413 | 55 | –
20 | MVNPGSSSQPPPVTAGSLSWKRCAGCGGKIADRFLLYAMDSYWHSRCLKCSCCQAQLGDIGTSCYTKSGMILCRNDYIRLFGNSGACSACGQSIPASELVMRAQGNVYHLKCFTCSTCRNRLVPGDRFHYINGSLFCEHDRPTALINGHLNSLQSNPLLPDQKVC [LMO4] | -0.938 | -0.0181 | 52.8 | –
